The text below walks through data of PMC11430099.

The subject of this series is T1, CadX (single-chain homodimer, two identical CadX copies joined by GGGGSGGGGSGGGGS linker) (Streptococcus suis GZ0565), ORF:24397d24.
T1 sequence: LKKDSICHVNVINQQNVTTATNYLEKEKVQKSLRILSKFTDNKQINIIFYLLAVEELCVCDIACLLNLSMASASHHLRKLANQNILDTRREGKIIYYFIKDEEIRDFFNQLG
As to the kind of experiment: EMSA. (In general: A gel shift assay detects complexes by their altered migration in electrophoresis.)

“TTTGGATGGCAGGGCTTTTTTATATTTGGTACACTAACTTCTTATCTATATTTTGGTGGAGCTGAAGTTGACATCTACAATGTTTAATGTTAGAATACATTCAAAAATATATTTGAATGAGGTCTTTT (double strand) [cadDX promoter fragment]”: the binding result is “binds”.
